From PMC6895276 (Nucleic Acids Research, 2019)
One block for each molecule: values may come before it.

Assays:
Test in all cases: SPR
[1] = molecular target: MutS STAB3 (Escherichia coli) (UniProt P23909)
[2] = molecular target: MutS STAB2 (Escherichia coli) (UniProt P23909)
[3] = molecular target: MutS STAB4 (Escherichia coli) (UniProt P23909)
[4] = molecular target: MutS STAB1 (Escherichia coli) (UniProt P23909)
WT MutS = molecular target: T1, WT MutS (Escherichia coli, UniProt P23909 1-853)
T1 sequence (looked up): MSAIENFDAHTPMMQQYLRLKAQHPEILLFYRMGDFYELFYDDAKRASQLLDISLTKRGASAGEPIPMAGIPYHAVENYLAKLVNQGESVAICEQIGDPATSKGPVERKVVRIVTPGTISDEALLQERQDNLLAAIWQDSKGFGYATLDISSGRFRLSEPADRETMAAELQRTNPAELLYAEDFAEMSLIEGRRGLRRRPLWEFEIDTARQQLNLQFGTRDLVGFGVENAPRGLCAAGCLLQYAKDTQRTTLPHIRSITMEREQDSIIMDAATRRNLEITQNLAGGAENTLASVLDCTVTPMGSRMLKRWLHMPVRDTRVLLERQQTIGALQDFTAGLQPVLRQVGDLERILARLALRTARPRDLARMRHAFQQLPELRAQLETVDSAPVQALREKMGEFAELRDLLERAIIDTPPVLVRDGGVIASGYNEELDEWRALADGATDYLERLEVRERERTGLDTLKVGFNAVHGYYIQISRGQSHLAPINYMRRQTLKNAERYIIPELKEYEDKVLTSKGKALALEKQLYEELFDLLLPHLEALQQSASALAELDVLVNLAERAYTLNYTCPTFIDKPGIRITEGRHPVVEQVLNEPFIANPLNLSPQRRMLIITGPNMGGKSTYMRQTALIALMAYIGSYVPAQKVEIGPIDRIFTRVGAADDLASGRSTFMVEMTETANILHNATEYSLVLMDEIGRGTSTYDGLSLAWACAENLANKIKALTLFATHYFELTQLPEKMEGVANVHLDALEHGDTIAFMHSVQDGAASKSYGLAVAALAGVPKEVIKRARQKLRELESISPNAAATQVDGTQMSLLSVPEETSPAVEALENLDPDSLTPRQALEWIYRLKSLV

Kd [1]: 17 nM | Kd [2]: 16 nM | Kd [3]: 11 nM | Kd [4]: 18 nM
Molecule: MutL WT (from UniProt P23367 1-615) (natural protein)

Kd (WT MutS): 15 nM
B1: MutL WT (natural protein, UniProt P23367 1-615, looked up)
chain: MPIQVLPPQLANQIAAGEVVERPASVVKELVENSLDAGATRIDIDIERGGAKLIRIRDNGCGIKKDELALALARHATSKIASLDDLEAIISLGFRGEALASISSVSRLTLTSRTAEQQEAWQAYAEGRDMNVTVKPAAHPVGTTLEVLDLFYNTPARRKFLRTEKTEFNHIDEIIRRIALARFDVTINLSHNGKIVRQYRAVPEGGQKERRLGAICGTAFLEQALAIEWQHGDLTLRGWVADPNHTTPALAEIQYCYVNGRMMRDRLINHAIRQACEDKLGADQQPAFVLYLEIDPHQVDVNVHPAKHEVRFHQSRLVHDFIYQGVLSVLQQQLETPLPLDDEPQPAPRSIPENRVAAGRNHFAEPAAREPVAPRYTPAPASGSRPAAPWPNAQPGYQKQQGEVYRQLLQTPAPMQKLKAPEPQEPALAANSQSFGRVLTIVHSDCALLERDGNISLLSLPVAERWLRQAQLTPGEAPVCAQPLLIPLRLKVSAEEKSALEKAQSALAELGIDFQSDAQHVTIRAVPLPLRQQNLQILIPELIGYLAKQSVFEPGNIAQWIARNLMSEHAQWSMAQAITLLADVERLCPQLVKTPPGGLLQSVDLHPAIKALKDE
